# B1: Tyrosine aminotransferase (Homo sapiens), P17735 (parent)
# chain: MDPYMIQMSSKGNLPSILDVHVNVGGRSSVPGKMKGRKARWSVRPSDMAKKTFNPIRAIVDNMKVKPNPNKTMISLSIGDPTVFGNLPTDPEVTQAMKDALDSGKYNGYAPSIGFLSSREEIASYYHCPEAPLEAKDVILTSGCSQAIDLCLAVLANPGQNILVPRPGFSLYKTLAESMGIEVKLYNLLPEKSWEIDLKQLEYLIDEKTACLIVNNPSNPCGSVFSKRHLQKILAVAARQCVPILADEIYGDMVFSDCKYEPLATLSTDVPILSCGGLAKRWLVPGWRLGWILIHDRRDIFGNEIRDGLVKLSQRILGPCTIVQGALKSILCRTPGEFYHNTLSFLKSNADLCYGALAAIPGLRPVRPSGAMYLMVGIEMEHFPEFENDVEFTERLVAEQSVHCLPATCFEYPNFIRVVITVPEVMMLEACSRIQEFCEQHYHCAEGSQEECDK
# B2: U4/U6 small nuclear ribonucleoprotein Prp31 (Homo sapiens), Q8WWY3 (parent)
# chain: MSLADELLADLEEAAEEEEGGSYGEEEEEPAIEDVQEETQLDLSGDSVKTIAKLWDSKMFAEIMMKIEEYISKQAKASEVMGPVEAAPEYRVIVDANNLTVEIENELNIIHKFIRDKYSKRFPELESLVPNALDYIRTVKELGNSLDKCKNNENLQQILTNATIMVVSVTASTTQGQQLSEEELERLEEACDMALELNASKHRIYEYVESRMSFIAPNLSIIIGASTAAKIMGVAGGLTNLSKMPACNIMLLGAQRKTLSGFSSTSVLPHTGYIYHSDIVQSLPPDLRRKAARLVAAKCTLAARVDSFHESTEGKVGYELKDEIERKFDKWQEPPPVKQVKPLPAPLDGQRKKRGGRRYRKMKERLGLTEIRKQANRMSFGEIEEDAYQEDLGFSLGHLGKSGSGRVRQTQVNEATKARISKTLQRTLQKQSVVYGGKSTIRDRSSGTASSVAFTPLQGLEIVNPQAAEKKVAEANQKYFSSMAEFLKVKGEKSGLMST
# partner: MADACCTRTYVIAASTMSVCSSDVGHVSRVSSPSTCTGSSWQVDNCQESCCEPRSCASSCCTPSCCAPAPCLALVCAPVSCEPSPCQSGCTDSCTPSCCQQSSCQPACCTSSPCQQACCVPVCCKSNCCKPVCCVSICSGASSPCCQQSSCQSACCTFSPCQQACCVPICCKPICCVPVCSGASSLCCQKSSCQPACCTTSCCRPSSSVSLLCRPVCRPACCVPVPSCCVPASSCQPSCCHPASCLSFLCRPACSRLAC
# B3: Proton-coupled zinc antiporter SLC30A8 (Homo sapiens), Q8IWU4 (parent)
# chain: MEFLERTYLVNDKAAKMYAFTLESVELQQKPVNKDQCPRERPEELESGGMYHCHSGSKPTEKGANEYAYAKWKLCSASAICFIFMIAEVVGGHIAGSLAVVTDAAHLLIDLTSFLLSLFSLWLSSKPPSKRLTFGWHRAEILGALLSILCIWVVTGVLVYLACERLLYPDYQIQATVMIIVSSCAVAANIVLTVVLHQRCLGHNHKEVQANASVRAAFVHALGDLFQSISVLISALIIYFKPEYKIADPICTFIFSILVLASTITILKDFSILLMEGVPKSLNYSGVKELILAVDGVLSVHSLHIWSLTMNQVILSAHVATAASRDSQVVRREIAKALSKSFTMHSLTIQMESPVDQDPDCLFCEDPCD
# partner: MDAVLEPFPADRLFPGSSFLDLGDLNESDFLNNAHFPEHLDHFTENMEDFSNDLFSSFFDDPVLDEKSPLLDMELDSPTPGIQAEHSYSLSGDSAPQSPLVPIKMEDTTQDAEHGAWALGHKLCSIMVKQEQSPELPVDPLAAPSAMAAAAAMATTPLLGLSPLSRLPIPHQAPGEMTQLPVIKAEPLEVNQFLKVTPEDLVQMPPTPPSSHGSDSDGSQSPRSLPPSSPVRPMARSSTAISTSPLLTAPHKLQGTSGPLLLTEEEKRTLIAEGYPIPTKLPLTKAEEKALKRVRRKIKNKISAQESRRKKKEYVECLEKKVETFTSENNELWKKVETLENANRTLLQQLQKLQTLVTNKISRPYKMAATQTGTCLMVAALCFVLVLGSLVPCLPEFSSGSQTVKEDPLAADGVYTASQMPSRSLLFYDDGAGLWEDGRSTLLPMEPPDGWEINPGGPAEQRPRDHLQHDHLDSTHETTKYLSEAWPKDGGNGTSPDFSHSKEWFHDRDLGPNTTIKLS
# B4: Phospholamban (Homo sapiens), P26678 (parent)
# chain: MEKVQYLTRSAIRRASTIEMPQQARQKLQNLFINFCLILICLLLICIIVMLL
# partner: B3 partner
# B5: Claudin-19 (Homo sapiens), Q8N6F1-2 (parent)
# chain: MANSGLQLLGYFLALGGWVGIIASTALPQWKQSSYAGDAIITAVGLYEGLWMSCASQSTGQVQCKLYDSLLALDGHIQSARALMVVAVLLGFVAMVLSVVGMKCTRVGDSNPIAKGRVAIAGGALFILAGLCTLTAVSWYATLVTQEFFNPSTPVNARYEFGPALFVGWASAGLAVLGGSFLCCTCPEPERPNSSPQPYRPGPSAAAREYV
# partner: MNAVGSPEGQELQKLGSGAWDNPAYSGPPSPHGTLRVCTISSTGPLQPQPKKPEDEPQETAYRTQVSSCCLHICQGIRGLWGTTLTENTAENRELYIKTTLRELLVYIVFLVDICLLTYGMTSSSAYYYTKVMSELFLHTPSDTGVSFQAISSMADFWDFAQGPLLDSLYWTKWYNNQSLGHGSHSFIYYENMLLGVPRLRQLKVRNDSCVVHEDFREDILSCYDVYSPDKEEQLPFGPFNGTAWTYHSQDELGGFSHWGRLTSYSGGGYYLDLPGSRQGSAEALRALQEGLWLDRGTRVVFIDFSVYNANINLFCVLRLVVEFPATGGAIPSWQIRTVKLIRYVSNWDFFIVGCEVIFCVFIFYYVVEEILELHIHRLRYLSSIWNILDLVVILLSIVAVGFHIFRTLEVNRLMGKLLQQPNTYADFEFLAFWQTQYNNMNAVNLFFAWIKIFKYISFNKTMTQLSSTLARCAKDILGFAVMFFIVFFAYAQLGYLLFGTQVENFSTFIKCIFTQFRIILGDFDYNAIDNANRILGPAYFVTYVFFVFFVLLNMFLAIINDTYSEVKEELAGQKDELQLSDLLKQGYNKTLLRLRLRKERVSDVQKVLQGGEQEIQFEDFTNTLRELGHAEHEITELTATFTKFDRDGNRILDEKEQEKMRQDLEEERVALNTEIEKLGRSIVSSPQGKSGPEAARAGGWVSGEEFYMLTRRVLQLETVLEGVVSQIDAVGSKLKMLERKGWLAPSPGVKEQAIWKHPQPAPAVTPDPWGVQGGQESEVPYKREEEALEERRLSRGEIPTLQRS
# B6: Three-prime repair exonuclease 1 (Homo sapiens), Q9NSU2-1 (parent)
# chain: MGPGARRQGRIVQGRPEMCFCPPPTPLPPLRILTLGTHTPTPCSSPGSAAGTYPTMGSQALPPGPMQTLIFFDMEATGLPFSQPKVTELCLLAVHRCALESPPTSQGPPPTVPPPPRVVDKLSLCVAPGKACSPAASEITGLSTAVLAAHGRQCFDDNLANLLLAFLRRQPQPWCLVAHNGDRYDFPLLQAELAMLGLTSALDGAFCVDSITALKALERASSPSEHGPRKSYSLGSIYTRLYGQSPPDSHTAEGDVLALLSICQWRPQALLRWVDAHARPFGTIRPMYGVTASARTKPRPSAVTTTAHLATTRNTSPSLGESRGTKDLPPVKDPGALSREGLLAPLGLLAILTLAVATLYGLSLATPGE
# partner: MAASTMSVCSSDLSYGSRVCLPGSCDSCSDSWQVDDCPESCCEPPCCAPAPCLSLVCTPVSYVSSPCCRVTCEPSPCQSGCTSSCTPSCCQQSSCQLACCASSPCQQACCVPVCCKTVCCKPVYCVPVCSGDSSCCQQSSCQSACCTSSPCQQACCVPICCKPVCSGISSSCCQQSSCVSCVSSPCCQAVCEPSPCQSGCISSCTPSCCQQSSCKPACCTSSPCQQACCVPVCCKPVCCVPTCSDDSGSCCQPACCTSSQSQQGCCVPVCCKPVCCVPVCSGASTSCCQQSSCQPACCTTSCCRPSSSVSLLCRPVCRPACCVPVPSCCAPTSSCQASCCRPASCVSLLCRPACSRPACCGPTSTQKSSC
# B7: Interleukin-1 alpha (Homo sapiens), P01583 (parent)
# chain: MAKVPDMFEDLKNCYSENEEDSSSIDHLSLNQKSFYHVSYGPLHEGCMDQSVSLSISETSKTSKLTFKESMVVVATNGKVLKKRRLSLSQSITDDDLEAIANDSEEEIIKPRSAPFSFLSNVKYNFMRIIKYEFILNDALNQSIIRANDQYLTAAALHNLDEAVKFDMGAYKSSKDDAKITVILRISKTQLYVTAQDEDQPVLLKEMPEIPKTITGSETNLLFFWETHGTKNYFTSVAHPNLFIATKQDYWVCLAGGPPSITDFQILENQA
# B8: Ribose-phosphate pyrophosphokinase 1 (Homo sapiens), P60891 (parent)
# chain: MPNIKIFSGSSHQDLSQKIADRLGLELGKVVTKKFSNQETCVEIGESVRGEDVYIVQSGCGEINDNLMELLIMINACKIASASRVTAVIPCFPYARQDKKDKSRAPISAKLVANMLSVAGADHIITMDLHASQIQGFFDIPVDNLYAEPAVLKWIRENISEWRNCTIVSPDAGGAKRVTSIADRLNVDFALIHKERKKANEVDRMVLVGDVKDRVAILVDDMADTCGTICHAADKLLSAGATRVYAILTHGIFSGPAISRINNACFEAVVVTNTIPQEDKMKHCSKIQVIDISMILAEAIRRTHNGESVSYLFSHVPL
# partner: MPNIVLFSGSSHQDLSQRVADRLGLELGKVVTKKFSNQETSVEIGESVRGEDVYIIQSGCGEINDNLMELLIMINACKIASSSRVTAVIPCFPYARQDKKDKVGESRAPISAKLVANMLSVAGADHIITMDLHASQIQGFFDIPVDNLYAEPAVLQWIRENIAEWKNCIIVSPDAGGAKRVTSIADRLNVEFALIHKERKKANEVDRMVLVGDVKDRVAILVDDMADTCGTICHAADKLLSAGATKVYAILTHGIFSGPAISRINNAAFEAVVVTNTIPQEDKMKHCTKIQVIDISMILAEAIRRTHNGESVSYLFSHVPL
# Variants of: B1
# Settings: with UBE3A
row,effect of a mutation on the interaction,Variant
1,with no effect,R119W
2,disrupting interaction strength,L273P

# Variants of: B1
# Settings: with glna_human GLUL
row,effect of a mutation on the interaction,Variant
1,with no effect,R119W
2,disrupting interaction strength,L273P

# Variants of: B2
# Settings: with kr108_human KRTAP10-8, P60410
row,effect of a mutation on the interaction,Variant
1,with no effect,L107V

# Variants of: B3
# Settings: with cr3l1_human CREB3L1, Q96BA8
row,effect of a mutation on the interaction,Variant
1,disrupting interaction strength,R325W
2,with no effect,R325Q

# Variants of: B4
# Settings: with cr3l1_human CREB3L1, Q96BA8
row,effect of a mutation on the interaction,Variant
1,with no effect,R9C

# Variants of: B5
# Settings: with pk2l1_human PKD2L1, Q9P0L9
row,effect of a mutation on the interaction,Variant
1,disrupting interaction strength,G20D
2,with no effect,R200Q
3,disrupting interaction strength,L90P

# Variants of: B6
# Settings: with kr107_human KRTAP10-7, P60409
row,effect of a mutation on the interaction,Variant
1,with no effect,G361A
2,with no effect,R169H
3,with no effect,A213V

# Variants of: B7
# Settings: with ima7_human KPNA6, O60684
row,effect of a mutation on the interaction,Variant
1,with no effect,A114S
2,with no effect,S113A

# Variants of: B7
# Settings: with meox2_human MEOX2, P50222
# Sequence of meox2_human MEOX2, P50222 (P50222 whole entry): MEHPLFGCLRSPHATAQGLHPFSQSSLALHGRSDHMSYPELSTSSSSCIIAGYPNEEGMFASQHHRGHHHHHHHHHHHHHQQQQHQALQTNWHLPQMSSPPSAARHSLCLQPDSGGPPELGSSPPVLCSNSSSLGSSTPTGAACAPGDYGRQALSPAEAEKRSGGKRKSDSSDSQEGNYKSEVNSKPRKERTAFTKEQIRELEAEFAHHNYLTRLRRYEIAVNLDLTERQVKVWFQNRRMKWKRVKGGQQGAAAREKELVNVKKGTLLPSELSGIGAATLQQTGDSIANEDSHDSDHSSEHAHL
row,effect of a mutation on the interaction,Variant
1,with no effect,A114S
2,with no effect,S113A

# Variants of: B8
# Settings: with PRPS2, P11908-2
row,effect of a mutation on the interaction,Variant
1,with no effect,N114S
2,with no effect,D52H
3,with no effect,D183H
